Laboratory results: IntAct's records for PubMed 20543138

B1: General transcription factor 3C polypeptide 5 (Homo sapiens), Q9Y5Q8 (parent)
chain: MAAEAADLGLGAAVPVELRRERRMVCVEYPGVVRDVAKMLPTLGGEEGVSRIYADPTKRLELYFRPKDPYCHPVCANRFSTSSLLLRIRKRTRRQKGVLGTEAHSEVTFDMEILGIISTIYKFQGMSDFQYLAVHTEAGGKHTSMYDKVLMLRPEKEAFFHQELPLYIPPPIFSRLDAPVDYFYRPETQHREGYNNPPISGENLIGLSRARRPHNAIFVNFEDEEVPKQPLEAAAQTWRRVCTNPVDRKVEEELRKLFDIRPIWSRNAVKANISVHPDKLKVLLPFIAYYMITGPWRSLWIRFGYDPRKNPDAKIYQVLDFRIRCGMKHGYAPSDLPVKAKRSTYNYSLPITVKKTSSQLVTMHDLKQGLGPSGTSGARKPASSKYKLKDSVYIFREGALPPYRQMFYQLCDLNVEELQKIIHRNDGAENSCTERDGWCLPKTSDELRDTMSLMIRQTIRSKRPALFSSSAKADGGKEQLTYESGEDEEDEEEEEEEEEDFKPSDGSENEMETEILDYV

Variants of: B1
Settings: with mtor_human MTOR

| Variant | effect of a mutation on the interaction |
| --- | --- |
| F109I | disrupting interaction |
